Patent US20190018005A1

How the values were obtained:
[1] = target: 3.3 antibody (an anti-PEG antibody, IgG type); experiment: ELISA, biotin-3.3Ab 0.0371 µg/mL on plate coated with poly-protein G, streptavidin-HRP, OD405
[2] = target: 3.3 antibody (an anti-PEG antibody, IgG type); experiment: ELISA, biotin-3.3Ab 1 µg/mL on plate coated with poly-protein G, streptavidin-HRP, OD405
[3] = target: 3.3 antibody (an anti-PEG antibody, IgG type); experiment: ELISA, biotin-3.3Ab 0.11 µg/mL on plate coated with poly-protein G, streptavidin-HRP, OD405
[4] = target: 3.3 antibody (an anti-PEG antibody, IgG type); experiment: ELISA, biotin-3.3Ab 0.33 µg/mL on plate coated with poly-protein G, streptavidin-HRP, OD405
[5] = target: 3.3 antibody (an anti-PEG antibody, IgG type); experiment: ELISA, biotin-3.3Ab 0.0123 µg/mL on plate coated with poly-protein G, streptavidin-HRP, OD405

B1: poly-protein G (soluble; HA, eight repeats of C2 domain of protein G with linkers, six histidines) (protein, not shown: small tags and cut ends)
chain: TYKLVINGKTLKGETTTEAVDAATAEKVFKQYANDNGVDGEWTYDDATKTFTVTEGGGGSGGGGSVETYKLVINGKTLKGETTTEAVDAATAEKVFKQYANDNGVDGEWTYDDATKTFTVTEGGGGSGGGGSVETYKLVINGKTLKGETTTEAVDAATAEKVFKQYANDNGVDGEWTYDDATKTFTVTEGGGGSGGGGSVETYKLVINGKTLKGETTTEAVDAATAEKVFKQYANDNGVDGEWTYDDATKTFTVTEGGGGSGGGGSVETYKLVINGKTLKGETTTEAVDAATAEKVFKQYANDNGVDGEWTYDDATKTFTVTEGGGGSGGGGSVETYKLVINGKTLKGETTTEAVDAATAEKVFKQYANDNGVDGEWTYDDATKTFTVTEGGGGSGGGGSVETYKLVINGKTLKGETTTEAVDAATAEKVFKQYANDNGVDGEWTYDDATKTFTVTEGGGGSGGGGSVETYKLVINGKTLKGETTTEAVDAATAEKVFKQYANDNGVDGEWTYDDATKTFTVTEGGGGSGGGGSVHHHHHH
Question: B1 was tested. Which fold antibody amount loaded vs commercial protein G-based plate [1] did it give?
Answer: 5.8 times

Question: What about the fold antibody amount loaded vs traditional polystyrene-based plate [1] of the same binder?
Answer: 20 times

Question: What about the fold antibody amount loaded vs commercial protein G-based plate [2] of the same binder?
Answer: 1.15 times

Question: What about the fold antibody amount loaded vs traditional polystyrene-based plate [2] of the same binder?
Answer: 1.3 times

Question: What about the fold antibody amount loaded vs commercial protein G-based plate [3] of the same binder?
Answer: 4 times

Question: And the fold antibody amount loaded vs traditional polystyrene-based plate [3]?
Answer: 10 times

Question: What about the fold antibody amount loaded vs commercial protein G-based plate [4] of the same binder?
Answer: 1.3 times

Question: And the fold antibody amount loaded vs traditional polystyrene-based plate [4]?
Answer: 2.2 times

Question: What about the fold antibody amount loaded vs commercial protein G-based plate [5] of the same binder?
Answer: 7.8 times

Question: What about the fold antibody amount loaded vs traditional polystyrene-based plate [5] of the same binder?
Answer: 14 times
